In US20160311918A1, “Anti-Ron Monoclonal Antibodies as a Cytotoxic Drug Delivery System for Targeted Cancer Therapy” (TEXAS TECH UNIVERSITY SYSTEM, priority 2013, published 2016):

Test system: HT29-Luc2 xenograft tumor
Test: HT29-luc2 mouse xenograft tumor model
Format: in vivo
Conditions: for tumor growth inhibited: five injection regimen
Protocol: Athymic nude mice (five mice per group) were subcutaneously inoculated with 5×10^6 HCT116, HT29, and SW620 cells followed by injection of 20 mg/kg Zt/g4-DM1 through tail vein. FIG. 4A: Tumor growth from HT29-luc2 or HCT116-luc2 cells was determined by measuring average photon intensity (left panel). SW620-derived tumor growth was monitored by measuring tumor volume (FIG. 4B) (right panel). FIG. 4C: Tumor images with photon emission or caliper measurement at day 16 are presented. The scale from minimal to maximal is set at 300 to 35,000 photons per second. The percentages of inhibition were calculated from the average photon emission (for HT29 and HCT116 cells) or tumor volume (for SW620 cells). FIG. 4D: Individual tumors from different groups were weighed at day 28. The percentages of inhibition were calculated by a formula: (average tumor weight from Zt/g4-DM1 treated group/average tumor weight from control mice)×100%;
FIGS. 5A to 5F show the evaluation of different doses of Zt/g4-DM1 on tumor growth and RON expression. FIG. 5A: Effect of multi-dose of Zt/g4-DM1 on tumor growth was tested in HT29 cell-induced tumors. Tumor-bearing mice were treated with different doses of Zt/g4-DM1 every four days for a total of five injections ( ? ). Tumor growth was determined by the average bioluminescence intensity. FIG. 5B: An IC50 value based on the average bioluminescence intensity from individual groups at day 31 was calculated using GraphPad Prism 6 software. FIG. 5C: Bioluminescence images of individual tumors from each group at day 31 are shown. The percentages of inhibition were calculated from the average photon emission. The color scale from minimal to maximal is set at 300 to 35,000 photons per second. FIG. 5D: Individual tumors from different groups were collected and weighed at day 31, 35, and 43, respectively. The percentages of inhibition were calculated as detailed in FIG. 4C. FIG. 5E: Samples of HT29 cell-derived xenograft tumors from both control and 15 mg/kg Zt/g4-DM1-treated mice at day 31 were processed for histological examination. […] FIG. 5F: Western blot analysis of RON expression in tumors samples from both control and 15 mg/kg Zt/g4-DM1-treated mice. Densitometry analysis was performed to determine the levels of RON expression;
Mouse xenograft CRC model and anti-RON ADC treatment: All mice studies were approved by the institutional animal care committee. Female athymic nude mice at 6 weeks of age (Taconic, Cranbury, N.J.) were injected with 5×10^6 HT29-Luc2, HCT116-luc2, or SW620 cells in the subcutaneous space of the right flank as previously described (18,33). Mice were randomized into different groups (five mice per group). […] The single-dose group received a tail vein injection of 20 mg/kg Zt/g4-DM1 in 0.1 ml PBS followed by observation for 28 days. The multi-dose study was performed by treating mice with Zt/g4-DM1 at 1, 3, 7, 10, and 15 mg/kg every four days for a total of five injections. Bioluminescence from individual tumors was measured every four days using Caliper IVIS image system (PerkinElmer). Tumor volumes from SW620-derived tumors were measured according to a formula: V=pi/6×1.58×(length×width)^3/2 (18,33). Animals were euthanized when tumor volumes exceeded 2000 mm^3 or if tumors became necrotic or ulcerated through the skin.
The inventors first determined the efficacy of a single dose of Zt/g4-DM1 at 20 mg/kg body weight on tumors derived from HCT116, HT29, and SW620 cells. Tumor growth by HCT116-luc2 and HT29-luc2 cells was measured by bioluminescence emitted from tumor cells. SW620-mediated tumors were evaluated by tumor volume (18,34).

[1] = 15 mg/kg every four days x5, day 31

B1: Zt/g4-DM1: anti-RON mouse mAb Zt/g4 conjugated to maytansinoid DM1 via non-reducible thioether linkage (SMCC), DAR about 4:1 (conjugate)
VH: EVQLQQSGAELVKPGASVKLSCTTSGFNIIDTYIHWVNQKPDQGLEWIGRIDPADGNRKSDPKFQVKATITVDTSSNTAYLQLSSLTSGDTAVYYCARGYGNLNAMDSWGQGTSVTVSS
VL: DIQMNQSPSSLSASLGDTITITCHASQNINVWLNWYQQKPGNIPKLLIYKASNLHTGVPSRFSGSGSGTGFTLTISSLQPEDIATYYCQQGQSYPLTFGGGTKLEIK
inhibition of tumor growth (1 mg/kg every four days x5): no inhibition of tumor growth | inhibition of tumor growth (3 mg/kg every four days x5): no inhibition of tumor growth | inhibition by average photon emission (7 mg/kg every four days x5, day 19 to 43): more than 80% | inhibition by tumor weight (7 mg/kg every four days x5, day 43): Significant inhibition was still observed | tumor growth inhibited (7 mg/kg): more than 90% | inhibition by average photon emission (10 mg/kg every four days x5, day 31): More than 95% | inhibition by tumor weight (10 mg/kg every four days x5, day 43): Significant inhibition was still observed | tumor growth inhibited (10 mg/kg): more than 90% | inhibition at average tumor weight [1]: 90% | inhibition by average photon emission [1]: More than 95% | average percentage of dead areas in a tumor mass (15 mg/kg, day 31, H&E staining): 65%±7.4 | RON expression in treated tumors (15 mg/kg, day 31, Western blot, control 100%): 16.44%±5.75 | tumor growth inhibited (15 mg/kg): more than 90% | IC50 dose (dose achieving 50% tumor inhibition) (multi-dose, average photons at day 31): 5.01 mg/kg | inhibition by average bioluminescence intensity (single dose 20 mg/kg, day 16): More than 95% | inhibition rate by average tumor weight (single dose 20 mg/kg, day 28): 50.98%
